According to the nanobody polyreactivity screen of Harvey et al. (2022):

Experiment: yeast display, Sf9 membrane polyspecificity reagent, FACS + sequencing; frameworks hold sequencing errors
In short: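 A nanobody's polyreactivity label depends on the gate it was sorted from. Yeast display cells were stained with 10% biotinylated, detergent-solubilized Sf9 membrane reagent for 1 hour at 4 °C, enriched on streptavidin microbeads and sorted by FACS. The low and high (top ~1%) gates were set on anti-HA fluorescence for expression and streptavidin fluorescence for reagent binding.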

Sequence	polyreactivity (PSR sort gate)
QVQLVESGGGLVQAGGSLRLSCAASGSIFNPYVMGWYRQAPGKERELVAAISSSGGRTYYADSVKGRFTLSRDNAKNTVDFQMNSLKPEDTAVYYCAAKPRQGYDYWGQGTQVTVSS	high polyreactivity
QVQLVESGGGLVQAGGSLRLSCAASGIIFGYYAMGWYRQAPGKERELVAAISGNGGSTYYADSVKGRFTLSRDNAKITVYLQMNSLKPEDTAVYYCAARRGYRYGPRYDYWGQGTQVTVSS	high polyreactivity
QVQLVESGGGLVQAGGSHRLSCAASGRIFDKNAMGWYRQAPGKERELVAAINRSGGRTYYADSVKGRFTISRDNAKNTVYLQMNSLKPEDTAVYYCAADTQGSRYDYWGQGTQVTVSS	high polyreactivity
QVQLVESGGGLVQAGGSLRLSCAASGIIFLQYAMGWYRQAPGKERELVAAITRRGDRTYYADSVKGRFTISRDNAKNTVYLQMNSLKPEDTAVYYCAASYWYRDYYYWGQGTQVTVSS	high polyreactivity
QVQLVESGGGLVQAGGSLRLSCAASGSTFKVYAMGWYRQAPGKERELVAAISQSGGSTYYADSVKGRFTITRDNAKNTVYFQMKSLKPEDTAVYYCAVRTYVYHWSFSSLPYDYWGQGTQVTVSS	high polyreactivity
QVQLVESGGGLVQAGGSLRLSCAASGITFYGYAMGWYRQAPGKERELVAAITSGGSTYYADSVKGRFTISRDNAKNTVYLQMNSLKPEDTAVYYCARYYWIRVGRYYRYEYWGQGTQVTVSS	low polyreactivity
QVQLVESGGGLVQAGGSLRLSCAASGSIFPRYVMAWYRQAPGKERELVAAISGSGGSTYYADSVKGRFTISRDNAKNTVYFQMNSLIPEDTAVYYCNKLRRRVNRDIDDYWGQGTQVTVSS	high polyreactivity
QVQLVETGGGLVQAGGSLRLSCAASGFTIWKYAMGWYRQAPGKERELVAAISLGGGRTYYADSVKGRFTISRDNANNTVYLQMNSLKPEDTAVYYCNAKIVSSVLYDYWGQGNQVTVSS	low polyreactivity
QVHLVETGGGLVHAGGSLRLSCASSGNIFSWYAMGWYRQAPGKEREFVAVIRGRGGSTYYADSVKGRFTISRDNAKNNVYLLMKSLKPEDTAVYYCAIRGFVLYFYRSGYGYGYWGQGTQVTVSS	low polyreactivity
QVQLVESGGGLVQAGGSLRLSCAASGSIFYPYAMGWYRQAPGKERELVAAIRWRGGNTYYADSVKGRFTFSRDNAKNTVYLQMNSLKPEDTAVYYCAADGKYLQGFGYYYWGQGTQVTVSS	high polyreactivity
QDQLVESGGVLVQAGGSLRLSCAASGSIFFRNAMGWYRQAPGKERELVAGIRWSGGSTYYADSVKARFTISRDNAKNTVYLQMNSLKPEDSAVYYCAASRYRPARVQYSYDYWGQGTQVTVSS	high polyreactivity
QVQLVESGGGLVQAGGSLRLSCAASGFNFAIYAMGWYRQAPGKERELVAAISSSGGSTYYADSVKGRFTISRDNAKNTVYLQMNSLKPEDTAVYYCNADWSLYWLDYWGQGTQVTVSS	high polyreactivity
QVQLVESGGGLVQAGGSLRLSCAASGSTFYYNAMGWYRQAPGKERELVATISGGGTTYYADSVKGRFTISRDNAKNSVYLQMISLKPEDTAVYYCATDWHIEYLYRKVHGRKHDYWGQGTQVTVSS	low polyreactivity
QVQIVESGGGLFQAGGSLRLICAASGRIFGNYSMGSSRQEPGKEREFVAAIDWSGGTTYYADSVKGPFTISRDNAKNTVYLQMNSLKPEDTEVYYCAAKYVYSVGNYRYDYWGQGTEVTVSS	low polyreactivity
QVQLVESGGGLVQAGGSLRLSCAASGNIFDEYTMGWYRQAPGKERELVAGISWSGSHTYYADSVKGRFTISRDNAKNTVYLQMNSLKPEDTAVYYCIADSYPDYTGPGLDWYDYWGQGTQVTVSS	low polyreactivity
QVQLVESGGGLVQAGGSLRLSCAASGRIFIVYAMGWYRQAPGKERELVATISWSGGSTYYADSVKGRFTISRDNAKNTVYLQMTSLKPEDTAVYYCAADYRWVDSDSSLFYWYDYWGQGTQVTVSS	high polyreactivity
QVQLVESGGGLVQAGGSLRLSCAASGSIFGRYAMGWYRQAPGKERELVAAITFSGASTYYADSVKGRFTISRDNAKNTVYLQMNSLKPEDTAVYYCAADGGTIEGDYWGQGTQVTVSS	low polyreactivity
QVQLVESGGGLVQAGGSLRLSCAASGSSFGWYGMGWYRQAPGKERELVASINWRGSSTYYADSVKGRFTISRDNSKNTVYLQMNSLKPEDTAVYYCATTRDWAYNYWGQGTQVTVSS	low polyreactivity
QVQLVESGGGLVQAGGSLRLSCSASGRTFSVYAMGSYRQAPGKERELVAGITSGGSTNYADSVKGRFTISRDNAKNTVYLQMNSLKPEDTAVYYCDAENVYAGFGFVSIVDYWVQGTQVTVSS	low polyreactivity
QVQLVESGGGLVQAGGSLRLSCAASGSIFYGNAMGWYRQAPGKERELVAAISGSGGRTYYADSVKGRFTISRDNAKNTVYLQMISLKTEDTAVYYCAASAPGGQDDYWGQGTQVTVSS	high polyreactivity
QVQLVESGGGLVQAGGSLPLSCAASGLTLYGNAMGWYRQAPAKEREMVADISLSGGRTFYADSVKGRFTITRDNAKNTVYLQMNSLKPEDTAVYYCAAVCRTGWYYEYYHWGQGSQVTVSS	low polyreactivity
QVQLVESGGGLVQAGGSLRLSCAASGSIFKIYAMGWYRQAHGKERELVAAISRRGSSTSYADSVKGRFTISRDNAKNTVYLQMNSLKPEDTAVYYCAARYISNPMDYWGQGTQVTVSS	high polyreactivity

Sequence	polyreactivity (PSR sort gate)
QVQLVESGGGVVQAGGSLRLSCAASGRIFDIYAMGWYRQAPGKARELVAAITRGGSTYADSVKGRFTISRDNAKYTVYLQMNSLKPEVTAVYYCAASLYSYRSPYTFYYWGQGTQVTVSS	high polyreactivity
QVQLVESGGGLVQAGGSLRLSCAASGSTLYKYAMVWYRQAPGKEREFVAAITRSGGSTYYADSVKGRFTISRDNAKNTVDLQMNSLKPEDTAVYYCAARVRVYSGWLYNYWGQGTQVTVSS	high polyreactivity
QVQLVESGGGLFQAGGSHRLSCAASGRIFPSYAMGWYRQAPGTQRELVAAIPRGGASTYYADSVKGRFTISRDIAQNTVYLQMNSLKPEDTAVYYCAARRSYTYGRDYWGQGTQVTVSS	high polyreactivity
QVQLVESGGGLVQAGGSLRLSCAASGRTFGLNVMGWYRQAPGKERELVATISWSGGTTYYADSVKGRFTISRDYAKNTVYLQMNSLKPEDTAVYYCNRQVTWYPTGGFWGQGTQVTVSS	low polyreactivity
QVQLVESGGRLVQAGGSLRLSCAASGITFNVYAMGWYRQEPGKERELVAAITSSGATTYYADSVKGRFTISRDNAKNTVYLQMNSLKPEDTSVYYCAAKLSTRRYKYDYWGQGTQVTVSS	high polyreactivity
QVQLVESGGGLVQAGGSLRLSCAASGIFGGYAMGWYIQAPRKERELVAAITSGGSTYYADSVKGRFTISRDNAKNTVYLQMNSLKPEDTAVYYCAARPRGTYSRLGYWGQGTQVTVSS	high polyreactivity
QVQLVESGGGLVQAGGSLRLSCAASGSIFHANAMGWYRQAPGKERELVAVISQGGGSTYYADSVKGRFTISRDNAKNTVYLQMNSLKPEDTAVYYCAAYYYYSAYGDDYWGQGTQVTVSS	high polyreactivity
QVQLVESGGGLVQAGGILRLSCAASGLIFIGYAMGWYRQAPGKERELVASIRGVGSTNYADSVKGRFTISRDNAKNTVYLQMNSLKPEDTAVYYCATSVDRALYTQTRGDYDYWGQGTQVTVSS	low polyreactivity
QVQLVESGGGLVQAGGSLRLSCAASGSTIRFYYMGWYRQEPGKERELVAAITGIGDSTYYSDSVKGRFTISRDNAKNSVYLQMNSLKPEDTAVYYCAAERYYYTARLRYWRYFWGQGTQVTVSS	high polyreactivity
QVQLVESGGGLVQAGGSLRLSCAASGSIFRYYTMGWYRQAPGKERELVAGINRGGRTYYADSVKGRYTISRDNAKNTVYLQMNSLKPEDTAVYYCAAVTYYGFDYWGQGTQVTVSS	high polyreactivity
QVQLVESGGGLVQAGGSLRLSCAASGSTFQTYAMGWYRQAPGKERELVAAITYGGSTNYADSVKGRFTMSRANAKNTVYLLMNSLKPEDTAVYYCAARDGDQRPRLRYDYWAQGTQVTVSS	low polyreactivity
QVQLVESGGGLVHAGGSLRLSCAASGRTFHGYAMGWYIQAPGKERELVAAITSSGARTYYADSVKGRFTISRDNAKNTVYLQMNSLKPEDTAVYYCAVNWLRGMDWGQGTQVTVSS	high polyreactivity
QVQLVESGGGLVQAGGSLRLSCAASGNTFIRNVMGWYRQAPGKERELVAGSRTGGSTFYADSVKGRFTISRDNAKNTVYLQMNSLKPEDTAVYYCNADVGDEGNLPYVIRPMDYWGQGTQVTVSS	low polyreactivity
QVQLVESGGGLVQAGGSLRLSCAASGSISYYAMGWYRQAPGKEMELVAAISQSGGSTYYADSVKGRFTISRDNAKNTVYLQMNSLKPEDTAVYYCAAKSPYSSYYPYGYWGQGTQVTVSS	high polyreactivity
QVQLVESGGGLVQAGGSLRLSCDASGSIFKYYAMGWYRQAPGKEREWVAAITIGGNTNYADSVKGRFTISRDNAKNTVYLQMNSLKPEDTAVYYCATGGYYSAIVYGGYDYWGQGTQVTVSS	low polyreactivity
QVQLVESGGGLVQAGGSLRLSCAASGFIFRGYAMGWYRQAPGKERELVAAITSSGGDTYYADSVKGRFTISRDNAKNTVYLQMNSLKPEDSAVYYCAKRARRIGDVNMGSWGQGSQVTVSS	low polyreactivity
QVQLVDSGGGLFQAGGSLRLSCAASGRTFVGYSMGWYRQAPGKEMEVVATITNDDITYADSVKGRFTISRDNAMNTVYLQMNSLNPEETAVYYCNTSYSYGTAYEQYRYKALYDYWGHGTQVTVSS	low polyreactivity
QVQLVESGGGLVQAGGSLRLSCAASGRTDNTNAMGWYRQAPGKERELVAAITRSGDSTYYADSVKGRFTISRDNAKNTVYLQMNSLKPEDTAVYYCAAYSRTLYPDRYYWGQGTQVTVSS	high polyreactivity
QVQLVESGGGLVQAGGSLRLSCAASGRTVTYYVMGWYRQAPGNERELVARITSSGITYYADSVKGRFTISRDNAKNTVYLQMNSLKPEDTAVYYCAKRRNAWTPYRFDYWGQGTQVTVSS	high polyreactivity
QVQLVESGGGLVQAGGSLRLSCAASGRTFIFYAMGWYRQAPGKERELVAAITYSGTSTYYADSVKGRFTISRDNAKNTVYLQMNSLKPEDTAVYYCAKDGQRDANYYWGQGTQVTVSS	low polyreactivity
QVQLVESGGGLVQAVVSLRLSCAASGRIFAYNAMGWYIQATGKERELVAAISSGGNTYYADSVKGRFTISRDNAKNTVYLQMNSLKPEDTAVYYCNAGVGWHRYYSNYDYWGLGTQVTVSS	low polyreactivity
